Test [1] concerns the target methylamine dehydrogenase (MADH) (Paracoccus denitrificans) (UniProt P22619). The conditions noted are these: cited from earlier work.
Test [2] deals with T1, methylamine dehydrogenase (MADH) (Paracoccus denitrificans, UniProt P22619).
T1 chain 1: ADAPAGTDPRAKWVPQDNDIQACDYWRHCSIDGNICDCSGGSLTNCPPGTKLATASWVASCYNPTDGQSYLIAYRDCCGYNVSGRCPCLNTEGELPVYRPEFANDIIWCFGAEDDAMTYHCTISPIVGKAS
T1 chain 2: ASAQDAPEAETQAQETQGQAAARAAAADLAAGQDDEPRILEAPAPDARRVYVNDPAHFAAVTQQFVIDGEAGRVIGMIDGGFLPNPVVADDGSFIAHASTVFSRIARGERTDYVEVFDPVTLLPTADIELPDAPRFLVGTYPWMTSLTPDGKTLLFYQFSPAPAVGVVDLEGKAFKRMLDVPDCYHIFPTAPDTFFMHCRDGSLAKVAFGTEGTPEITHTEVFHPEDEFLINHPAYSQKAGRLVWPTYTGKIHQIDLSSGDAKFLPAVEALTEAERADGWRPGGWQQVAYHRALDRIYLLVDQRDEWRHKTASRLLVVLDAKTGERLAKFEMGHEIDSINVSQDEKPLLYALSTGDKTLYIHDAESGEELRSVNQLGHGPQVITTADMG
Kind of test: steady-state kinetics competitive inhibition.

In article PMC3233348 (2012) one finds Kd and Ki data, which are given here for two molecules.

A word on the Kd: it is the concentration at which binding is half-saturated. The Ki is the dissociation constant of the complex between target and ligand, obtained from inhibition or displacement. A high value points to lower affinity.

As to amicyanin (from UniProt P22364), the Kd in test [1] was 5 µM.

B1: M98K amicyanin (protein)
chain: DKATIPSESPFAAAEVADGAIVVDIAKMKYETPELHVKVGDTVTWINREAMPHNVHFVAGVLGEAALKGPMKKKEQAYSLTFTEAGTYDYHCTPHPFMRGKVVVE
For B1, the affinity in test [2] corresponds to a Ki of 7.2 µM.
